# Measured values published in the supplement of paper PMC10567573.
# B1: FBF1 (parent)
# chain: QLQCSPAELQAELLHSQARLAELE
# Variants of: B1
# Assay: protein stability index of a GFP-peptide fusion (GPS, HEK-293T) (PSI 1-6); higher = more stable
# Conditions: c terminus: a fixed tail appended
# 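Further: lentivirally expressed fusions sorted by FACS into six bins by GFP to DsRed ratio, PSI derived from sequencing read proportions per bin multiplied by bin number.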
row,Variant,protein stability index
1,P6C,2.17
2,P6V,2.44
3,P6K,4
4,P6Q,2.84
5,P6L,2.43
6,P6Y,2.14
7,P6A,2.85
8,P6M,2.31
9,P6G,2.24
10,P6W,2.51
11,P6F,2.28
12,P6R,3.1
13,P6E,2.6
14,P6H,2.19
15,P6I,2.44
16,P6T,3.66
17,P6D,3.56
18,P6N,3.47
19,P6S,3.26
20,C4E,4.39
21,C4H,3.15
22,C4F,3.14
23,C4R,3.94
24,C4N,3.26

row,Variant,protein stability index
1,C4Y,3.77
2,C4A,3.99
3,C4W,2.82
4,C4I,2.93
5,C4P,3.65
6,C4D,4.22
7,C4M,3.82
8,C4V,2.96
9,C4L,3.92
10,C4S,3.82
11,C4Q,3.92
12,C4T,3.49
13,C4K,4.23
14,C4G,3.32
15,E8Q,2.67
16,E8Y,2.25
17,E8W,1.79
18,E8C,1.72
19,E8G,2.76
20,E8V,2.18
21,E8T,2.41
22,E8A,1.66
23,E8M,2.06
24,E8L,2.27

row,Variant,protein stability index
1,E8F,2.13
2,E8N,2.84
3,E8K,2.79
4,E8R,2.33
5,E8D,2.55
6,E8P,3.86
7,E8H,2.48
8,E8S,2.17
9,E8I,2.28
10,Q17G,3.74
11,Q17I,3.07
12,Q17R,3.68
13,Q17W,3.16
14,Q17F,3.26
15,Q17V,3.44
16,Q17K,4.11
17,Q17D,4.55
18,Q17N,4.25
19,Q17E,3.77
20,Q17A,3.4
21,Q17M,3.65
22,Q17S,3.98
23,Q17C,3.62
24,Q17L,2.92

row,Variant,protein stability index
1,Q17H,4.31
2,Q17P,4.52
3,Q17Y,3.52
4,Q17T,3.97
5,E12N,3.18
6,E12G,3.65
7,E12M,3.49
8,E12D,3.33
9,E12V,3.17
10,E12T,3.62
11,E12S,2.94
12,E12R,3.59
13,E12W,1.64
14,E12P,4.04
15,E12C,3.05
16,E12K,3.38
17,E12F,3.56
18,E12Y,3.22
19,E12L,2.75
20,E12A,2.47
21,E12I,2.57
22,E12Q,2.67
23,E12H,2.41
24,Q10R,2.56

row,Variant,protein stability index
1,Q10I,2.04
2,Q10Y,1.89
3,Q10F,1.79
4,Q10V,2.56
5,Q10H,3.1
6,Q10C,2.45
7,Q10W,2.21
8,Q10L,2.17
9,Q10P,4.69
10,Q10G,3.85
11,Q10A,2.93
12,Q10D,5.13
13,Q10S,3.7
14,Q10E,3.95
15,Q10T,3.91
16,Q10N,3.54
17,Q10K,3.74
18,Q10M,2.29
19,H15Q,3.71
20,H15Y,1.92
21,H15R,2.73
22,H15E,3.81
23,H15S,2.52
24,H15C,2.88

row,Variant,protein stability index
1,H15I,1.87
2,H15D,3.28
3,H15G,4.04
4,H15W,2.65
5,H15K,3.49
6,H15P,4.91
7,H15M,2.22
8,H15N,2.81
9,H15T,3.56
10,H15L,2.27
11,H15A,3.78
12,H15V,2.85
13,H15F,1.84
14,L13K,4.25
15,L13V,4.2
16,L13Y,4.52
17,L13D,5.39
18,L13C,4.32
19,L13N,4.96
20,L13M,3.34
21,L13H,4.85
22,L13A,4.28
23,L13G,4.59
24,L13W,4.13

row,Variant,protein stability index
1,L13P,4.73
2,L13S,4.74
3,L13T,4.7
4,L13E,4.25
5,L13I,4.62
6,L13F,4.25
7,L13R,4.31
8,L13Q,5.08
9,L2W,2.75
10,L2Y,3.35
11,S5E,3.25
12,S5D,2.74
13,S5Q,3.69
14,S5C,3.03
15,S5M,3.23
16,S5A,3.48
17,S5H,3.01
18,S5I,3.25
19,S5N,2.94
20,S5T,3.85
21,S5K,3.23
22,S5F,2.87
23,S5V,3.03
24,S5W,2.64

row,Variant,protein stability index
1,S5R,2.66
2,S5L,3.13
3,S5Y,3.01
4,S5G,2.79
5,S5P,3.67
6,A18C,3.27
7,A18D,4.03
8,A18Q,3.66
9,A18Y,2.81
10,A18L,2.68
11,A18S,3.69
12,A18W,2.18
13,A18G,4.23
14,A18R,3.24
15,A18V,2.98
16,A18K,2.77
17,A18H,2.85
18,A18M,2.77
19,A18I,3.13
20,A18N,3.12
21,A18F,2.82
22,A18T,3.42
23,A18E,3.95
24,A18P,3.96

row,Variant,protein stability index
1,L9V,4.4
2,L9G,4.96
3,L9M,4.3
4,L9W,4.52
5,L9P,4.79
6,L9H,4.18
7,L9T,4.45
8,L9S,5.05
9,L9K,4.57
10,L9R,4.51
11,L9F,4.1
12,L9I,4.14
13,L9C,3.85
14,L9E,5.3
15,L9Y,4.64
16,L9A,4.79
17,L9Q,4.62
18,L9N,4.92
19,L9D,5.05
20,L20F,3.37
21,L20G,4.74
22,L20A,4.91
23,L20K,4.66
24,L20D,4.91

row,Variant,protein stability index
1,L20E,4.63
2,L20I,3.59
3,L20C,3.35
4,L20H,4.05
5,A11G,4.24
6,A11K,3.04
7,A11M,2.01
8,A11C,3.89
9,A11Q,3.28
10,A11N,3.1
11,A11D,2.94
12,A11F,2.41
13,A11L,1.71
14,A11P,4.43
15,A11V,2.87
16,A11I,2.24
17,A11S,2.77
18,A11E,4.26
19,A11H,3.38
20,A11W,2.59
21,A11R,2.62
22,A11Y,2.3
23,A11T,3.37
24,S16Q,4.06

row,Variant,protein stability index
1,S16P,4.17
2,S16E,4.81
3,S16K,3.9
4,S16V,4.15
5,S16Y,3.49
6,S16N,4.33
7,S16I,2.81
8,S16C,4.23
9,S16T,2.95
10,S16M,3.33
11,S16A,2.88
12,S16W,3.35
13,S16R,4.02
14,S16L,3.91
15,S16D,5.03
16,S16F,3.78
17,S16H,4.46
18,S16G,4.86
19,A7H,2.57
20,A7T,2.78
21,A7V,3.07
22,A7E,3.4
23,A7W,2.92
24,A7S,3.62

row,Variant,protein stability index
1,A7R,3.06
2,A7C,2.74
3,A7G,2.52
4,A7Y,1.82
5,A7M,2.36
6,A7K,2.9
7,A7I,2.94
8,A7F,2.57
9,A7P,3.79
10,A7L,2.37
11,A7D,3.66
12,A7Q,3.27
13,A7N,3.39
14,Q3K,2.19
15,Q3D,3.1
16,Q3F,2.11
17,Q3R,3.21
18,Q3T,3.48
19,Q3L,3.35
20,Q3M,2.59
21,Q3C,2.53
22,Q3Y,2.12
23,Q3W,2.62
24,Q3I,2.69

row,Variant,protein stability index
1,Q3G,3.25
2,Q3P,3.01
3,Q3V,3.1
4,Q3H,2.6
5,Q3A,3.13
6,Q3S,3.53
7,Q3E,3.54
8,Q3N,2.81
9,R19N,4.2
10,R19H,3.34
11,R19T,3.88
12,R19C,2.84
13,R19D,4.27
14,R19L,1.79
15,R19E,2.89
16,R19I,1.99
17,R19W,2.12
18,R19P,4.61
19,R19M,1.97
20,R19F,2.12
21,R19V,2.55
22,R19S,4.45
23,R19A,2.6
24,R19Y,1.89

row,Variant,protein stability index
1,R19K,3.05
2,R19Q,2.94
3,R19G,4.16
4,L14E,4.39
5,L14N,2.85
6,L14H,3.94
7,L14R,3.33
8,L14P,4.8
9,L14C,3.3
10,L14F,3.27
11,L14A,2.89
12,L14Y,3.21
13,L14K,3.72
14,L14Q,3.59
15,L14T,3.61
16,L14G,4.5
17,L14I,3.83
18,L14W,2.93
19,L14S,3.67
20,L14V,4.08
21,L14M,2.93
22,L14D,4.88
